Target: T1, CFP10-ESAT6 antigen (Mycobacterium tuberculosis, UniProt P9WNK5;P9WNK7 2-100;2-95)
T1 chain 1: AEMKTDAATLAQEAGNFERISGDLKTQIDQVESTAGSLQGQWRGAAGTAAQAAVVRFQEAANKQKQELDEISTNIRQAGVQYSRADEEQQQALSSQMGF
T1 chain 2: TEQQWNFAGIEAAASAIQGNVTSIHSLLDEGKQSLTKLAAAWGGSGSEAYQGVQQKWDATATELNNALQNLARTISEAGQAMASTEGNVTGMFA
Assay: circular dichroism; Sensor: antigen incubated 1 h at 37 °C on aptamer electrode blocked with 0.25% BSA, PBS wash; DPV in 0.1 M PBS pH 7.4; CD buffer not given
Details: protein: commercial; copies: 1;1; folded

B1: CapApt (CFP10-ESAT6 aptamer) (ssDNA)
DNA: GCCTGTTGTGAGCCTCCTAACCCCATCTTATACGTATATGGACTCATCTCGACCCCCGATAGGCTTGGTACATGCTTATTCTTGTCTCCC
modifications: 5'-NH2
- binding result: binds

— paper PMC8470133, “Aptasensor for the Detection of Mycobacterium tuberculosis in Sputum Utilising CFP10-ESAT6 Protein as a Selective Biomarker”
